Test results reported in patent publication US20210122827A1.

Target: human GLP-1 receptor (human) (UniProt P43220)
Experiment: cell-based or functional assay

Chain of human GLP-1 receptor (human) (P43220 24-463): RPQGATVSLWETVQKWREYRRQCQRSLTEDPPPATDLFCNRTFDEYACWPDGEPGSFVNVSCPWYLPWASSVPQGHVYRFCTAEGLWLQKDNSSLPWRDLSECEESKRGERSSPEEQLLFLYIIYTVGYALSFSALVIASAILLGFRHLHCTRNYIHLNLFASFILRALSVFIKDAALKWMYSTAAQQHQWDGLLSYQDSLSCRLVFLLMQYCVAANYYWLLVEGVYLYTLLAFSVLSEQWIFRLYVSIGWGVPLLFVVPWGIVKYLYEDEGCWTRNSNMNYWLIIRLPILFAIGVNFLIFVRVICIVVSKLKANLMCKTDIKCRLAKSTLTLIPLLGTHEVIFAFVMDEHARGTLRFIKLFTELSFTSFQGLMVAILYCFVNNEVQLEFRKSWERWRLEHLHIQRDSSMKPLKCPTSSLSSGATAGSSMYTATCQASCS

EC50, CRE-Luciferase reporter gene assay on CHO-DHFR- cells co-expressing hGLP1R: 0.016 nM
Substance: GMA102 (proprietary fusion protein of GLP-1R antibody and GLP-1)
